Data as given in doi:10.1101/2023.08.16.553618, “Structure of C. elegans TMC-2 complex suggests roles of lipid-mediated subunit contacts in mechanosensory transduction” (bioRxiv, 2023).

Molecular target: the molecule itself
Assay: cryo-EM structure; single particle cryo-EM of the native TMC-2 complex isolated from worms in GDN with 1 mM CaCl2; cis-dimeric particles; 2 nm carbon grids

B1: C. elegans TMC-2 (transmembrane channel-like protein 2), native, with C-terminal mVenus-3C-3xFLAG (natural protein, UniProt Q11069 1-1203, looked up)
chain: MPKSGAHQPLVRHDTDDGGETGQSVKSLADVSEEEIDSRMSRRSSVIADLLSLFRRSSSVLVRPHTRLGNPNFDDDDDEFDEEDDKEASKDRILKKIQQKKEIIQKLRGQPWYMKRKRRTLKVAQKHLQQQEAKVSKARLYKAEAGRRLTQASRWLDNLKIYLIPWEAKIRKIESHFGSVVSSYFTFHRWVLGVNITITFIMCMFVVIPEWLADSRTQFGDDRYNKTKAIKVMPPAVRARADELSTVWDFGGYFQYSLLFYGFYSKETFFGETIKYRVPVAYFFCNIFILGFSLFIILRKMAANNRRGTLSSGKTQQYLFNWKAFTGWDYTIGNPETAGNVYMANVIKFREAINDDKQKPSDKHPWIRFVARVLTNLFICAMYVFSIWAIMQCGTLKGEHFFAQNATAITISLITLVFPNIFDLLGKIEKLHPRNALRFQLGRVLVLYILNYYTLIYSLMLQLEHLQKEKNASDNPISALGHPGDAIGRTIRETVLPRYPVDNNPHTYYSYAPVTTTPIPATSSWTTVLPDFGPFGVYNPKASVTKDDTVFSSPVVETHMFGPNSDWNETTVNAASPTGATTRASLRMSQGGLCWETIIGQEITKLVTMDLYMTVASIFLIDFLRGLACRYLNLYWPWDLERTFPEYGEFKVAENVLHLVNNQGMIWLGLFFVPLLPMLNNIKLIILMYIRGWAAMTCNVPASQIFRASRSSNFFFALLILFLFLCTLPVGFVIASKTPSKSCGPFGNQSFFYSVITDVLHENLDKTLVNGIKYSLSPGIIIPVLVLLSLVIYFLIAMVTGLSQANQDLSFQLMVERTEEKKKIFELAGGKKKKSKDNTFGKQKPKQLLPPPTKGVSSDDDSQHNRSTAKSVSGRQFVPSLGSVSEVDHSTGEEQSSDSESTTSSLPPKLSLRQRFLVCIGWADPNKYGRHDDIEMEEGGGRLRELSTGSETDSDDEDSEKSNRDMSYRTAIQSFDQNSQSASASSSKSTTTAPSNSEMRIEITENPLHTYITPLRIEKKSSASSSSSSHQPSSSIEKQAARRLLQPISTTHNIRYGVATVENSSQDPTRPPSTDDSLGDPALHEPLWANLNPHSSYTSAMMSPIMNEVMSNDETTDDEKGRLIPDRPPIPHSPRELKRLKREKDQQSESGSKPSTPRPPRFRISMSPPRKPPSEKNDSDSSNRKYEMRVEKSPKKPKKSDND
modifications: N-glycans at N225 and N748 (density features)
notes: TMC-2, C. elegans, Wormbase B0416.1a; tag inserted prior to the stop codon of the endogenous gene; A 3C (PreScission) site lies between mVenus and 3xFLAG; The complex was captured by the 3xFLAG tag and eluted by 3C cleavage, so the sample for SEC, mass spectrometry and cryo-EM has mVenus but no 3xFLAG; Two copies stand in the cis-dimeric complex; Not modelled in 8TKP: M1-A88, A472-T582, …
stoichiometry N: 2
